Here are results for 20 molecules from patent US20170137511A1 (CALYPSO BIOTECH, published 2017).

In assay [1] the target is T1, recombinant human IL-15 (Prospec cat no. CYT230) (human, UniProt P40933 49-162). As to the kind of experiment: ELISA, plate-bound human IL-15; printed as BC50 (half-maximal binding concentration). Here is the method: (§1) Maxisorp plates were coated with recombinant human IL-15 (Prospec cat no. CYT230) or Rhesus macaque IL-15 (MyBiosource cat. no. MBS948894) at 100 ng/well in carbonate coating buffer for 2 hours at 37° C. Since published sequences of Rhesus macaque and Cynomolgus monkey IL-15 are identical, such recombinant IL-15 protein was referred to as Macaque Monkey IL-15. Tested human IL-15 recombinant protein has a sequence identical to that provided in SEQ ID NO: 1 but with an additional methionine at the N-terminal position as usually done for expressing recombinant proteins in E. Coli. Tested recombinant Macaque Monkey IL-15 was produced in yeast and has a sequence identical to that provided in SEQ ID NO: 4 but with an additional N-terminal His tag.
T1 sequence (P40933 other isoform, or with tags, fused parts or gaps): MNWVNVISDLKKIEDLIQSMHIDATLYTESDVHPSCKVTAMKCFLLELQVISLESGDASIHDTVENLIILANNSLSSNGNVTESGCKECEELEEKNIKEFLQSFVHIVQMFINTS
(§2) The plate was then blocked with 2% normal goat serum for 30 min at 37° C. and washed 6 times with PBS-Tween (0.05% Tween-20 in PBS, v/v). Test antibodies were added to the plate in triplicate at various dilutions in PBS-Tween and the plate was incubated with gentle rocking at room temperature for 2 hours. The plate was then washed 6 times with PBS-Tween and an appropriate dilution of goat anti-human IgG antibody (Millipore cat. no. AP309P) conjugated to horseradish peroxidase (HRP) was added to the plate and left rocking at room temperature for 1 hour. The plate was then washed 6 times with PBS-Tween and incubated with TMB substrate. The reaction was stopped by the addition of 1M H₂SO₄ and read at 450 nm. Dose response curves of absorbance versus concentration were plotted and analyzed to determine half-maximal binding concentrations (BC₅₀) using the Graphpad Prism software. BC₅₀ values expressed as molarity were extrapolated from concentration in ng/ml using a 150 kDa molecular weight value for all antibodies.

Assay [2] concerns the target T2, recombinant Macaque Monkey IL-15 (MyBiosource cat. no. MBS948894) (Rhesus macaque / Cynomolgus monkey, UniProt P40221 49-162 (Chlorocebus aethiops entry)). Kind of assay: cell-based or functional assay.
Assay [3] has as its target T3, recombinant human IL-15 (R&D systems cat. no. 247-IL) (human, UniProt P40933 49-162). As to the kind of experiment: cell-based or functional assay.
The target of assay [4] is T3, recombinant human IL-15 (R&D systems …). As to the kind of experiment: cell-based or functional assay. This is another data set of the same source.
Assay [5] has as its target T2, recombinant Macaque Monkey IL-15 …. Kind of assay: ELISA, plate-bound Macaque Monkey IL-15; printed as BC50 (half-maximal binding concentration). On the procedure:
as §1, §2

Assay [6] deals with T1, recombinant human IL-15 (Prospec cat …). As to the kind of experiment: SPR (Biacore 3000), human IL-15 amine-coupled to the chip, antibody injected, 1:1 Langmuir fit. Here is the method: Human IL-15 (Prospec cat no. CYT230) was immobilized onto a CMS chip (GE Healthcare) using standard amine coupling, and antibodies injected at various concentrations in 120 μl phosphate buffer saline with a flow rate of […]. Binding kinetics were analyzed on a Biacore 3000 apparatus (GE Healthcare) with a 300 seconds dissociation period. Reference signal and 0 nM antibody concentration signal were substracted and data fitted using a 1:1 (Langmuir) binding model.

The target of assay [7] is T4, recombinant rat IL-15 (Sigma cat. no. SRP4172) (rat, UniProt P97604 49-162).
T4 sequence: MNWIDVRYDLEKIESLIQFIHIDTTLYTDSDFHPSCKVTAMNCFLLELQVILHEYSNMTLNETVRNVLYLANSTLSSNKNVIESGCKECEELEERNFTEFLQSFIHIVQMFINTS
As to the kind of experiment: ELISA, plate-bound recombinant rat IL-15 (100 ng/well), HRP goat anti-human IgG, absorbance at 450 nm. On the procedure: (§3) Maxisorp plates were coated with recombinant mouse IL-15 (R&D Systems cat. no. 447-ML) or rat IL-15 (Sigma cat. no. SRP4172) at 100 ng/well in carbonate coating buffer for 2 hours at 37° C. Tested IL-15 recombinant proteins have a sequence identical to that provided in SEQ ID NO: 2 (mouse IL-15) and SEQ ID NO: 3 (rat IL-15) but with an additional methionine at the N-terminal position as usually done for expressing recombinant proteins in E. Coli.
(§4) The plate was then blocked with 2% normal goat serum for 30 min at 37° C. and washed 6 times with PBS-Tween (0.05% Tween-20 in PBS, v/v). Test antibodies were added to the plate in triplicate at various dilutions in PBS-Tween and the plate was incubated with gentle rocking at room temperature for 2 hours. As positive controls, rabbit-anti-mouse IL-15 (Acris cat. no. AP01124PU-S) or rabbit anti-rat IL-15 (Biovision cat. no. 5172) antibodies were tested at the same concentrations. The plate was then washed 6 times with PBS-Tween and an appropriate dilution of HRP-conjugated goat anti-human IgG antibody (Millipore cat. no. AP309P) for humanized antibodies, or goat-anti-rabbit IgG antibody (Sigma cat. no. A 4416) for the positive controls was added and the plate was left rocking at room temperature for 1 hour. The plate was then washed 6 times with PBS-Tween and incubated with TMB substrate. The reaction was stopped by the addition of 1M H₂SO₄ and read at 450 nm. Dose response curves of absorbance versus concentration were plotted using the Graphpad Prism software.

The target of assay [8] is T5, recombinant mouse IL-15 (R&D Systems cat. no. 447-ML) (mouse, UniProt P48346 49-162).
T5 sequence: T4 sequence with F19S, I82A, R95K, N96T, H106R
Kind of assay: ELISA, plate-bound recombinant mouse IL-15 (100 ng/well), HRP goat anti-human IgG, absorbance at 450 nm. Here is the method:
as §3, §4
A general note: ELISA stands for enzyme-linked immunosorbent assay.

Substitutions are numbered along the chain they refer to.

T3 sequence (P40933 49-162 limits assumed): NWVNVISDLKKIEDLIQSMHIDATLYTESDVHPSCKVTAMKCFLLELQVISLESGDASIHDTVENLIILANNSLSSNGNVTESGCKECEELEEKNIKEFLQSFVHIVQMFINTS
T2 sequence (P40221 49-162): as the sequence (P40933 49-162 limits assumed) above, with L52H, A57T, S58D, S73I, V80I counted along it

B1: huB-E29-3 (antibody, human IgG1, kappa, V domains shown)
VH: EVRLMASGGGLVQPGGSLRLSCAASEFTFSNYAMSWVRQAPGKGLEWVSTISRGGDYTYYPDSVKGRFTISRDNSKNTLYLQMNSLRAEDTAVYYCARRVSMITGGWAMDYWGQGTLVTVSS
VL: DVVMTQSPLSLPVTLGQPASISCRSSQSIVDITGNTYLEWYQQRPGQSPRLLIYKVFNRFSGVPDRFSGSGSGTDFTLKISRVEAEDVGVYYCFQDSFVPYTFGQGTKLEIKR
notes: Humanized B-E29 variant; human IgG1 (G1m3) / kappa (Km3), produced in CHO cells; also called huVH3/huVL1
In general, EC50 refers to the concentration that produces a half-maximal response. Consider B1, for which the EC50 in assay [1] worked out at 2.62 nM.

B2: huB-E29-24 (antibody, human IgG1, kappa, V domains shown)
VH: B1 VH with R3Q, M5V, A6E, S49A, W107Y
VL: B1 VL
notes: Humanized B-E29 variant; human IgG1 (G1m3) / kappa (Km3), produced in CHO cells; also called huVH18/huVL1
For orientation: Kd means the concentration at which binding is half-saturated. Broadly, the koff is the first-order rate constant of dissociation. As usually defined, the kon is a measure of how fast the partners come together. With B2, in assay [2], the “IC50 in Kit 225 cells (nM), Macaque Monkey IL-15” value was found to be 26.7 nM and the “IC50 in M-07e cells (nM), Macaque Monkey IL-15” value was 10.4 nM. In assay [3], the “IC50 in Kit 225 cells (nM), Human IL-15” value turned out to be 29.3 nM and the “IC50 in M-07e cells (nM), Human IL-15” value is 19.1 nM. The “IC50 in M07e cells for IL-15 trans presentation” value in assay [4] stood at 0.65 nM. Also, the EC50 in assay [1] came to 0.647 nM. In addition, in assay [5], the EC50 was 0.113 nM. For the same molecule, in assay [6], the Kd is 0.329 nM, the koff stood at 0.000574 s⁻¹ and the kon is 1.75e+06 M⁻¹ s⁻¹. Also, the binding result in assay [7] is “no binding (tested: log 3.7 (about 5000 ng/mL))”. In assay [8], the binding result is “no binding (tested: log 3.7 (about 5000 ng/mL))”.

B3: huB-E29-7 (antibody, human IgG1, kappa, V domains shown)
VH: B1 VH with S49A, D62E, M102F
VL: B1 VL
notes: Humanized B-E29 variant; human IgG1 (G1m3) / kappa (Km3), produced in CHO cells; also called huVH5/huVL1
Consider B3, for which the EC50 in assay [1] stood at 0.84 nM; in assay [5], 0.433 nM.

B4: huB-E29-11 (antibody, human IgG1, kappa, V domains shown)
VH: B1 VH with S49A, S63T, W107F
VL: B1 VL
notes: Humanized B-E29 variant; human IgG1 (G1m3) / kappa (Km3), produced in CHO cells; also called huVH9/huVL1
Consider B4, for which the EC50 in assay [1] came to 0.98 nM.

B5: huB-E29-18 (antibody, human IgG1, kappa, V domains shown)
VH: B1 VH with S49A
VL: B1 VL with D96E
notes: Humanized B-E29 variant; human IgG1 (G1m3) / kappa (Km3), produced in CHO cells; also called huVH1/huVL4
For the molecule B5, the EC50 in assay [1] came to 0.693 nM; in assay [5], 0.367 nM.

B6: huB-E29-12 (antibody, human IgG1, kappa, V domains shown)
VH: B1 VH with S49A, S63T, W107A
VL: B1 VL
notes: Humanized B-E29 variant; human IgG1 (G1m3) / kappa (Km3), produced in CHO cells; also called huVH10/huVL1
Turning to B6, in assay [1], the 50% effective concentration (EC50) was found to be 0.593 nM.

B7: huB-E29-19 (antibody, human IgG1, kappa, V domains shown)
VH: B1 VH with S49A
VL: B1 VL with S97T
notes: Humanized B-E29 variant; human IgG1 (G1m3) / kappa (Km3), produced in CHO cells; also called huVH1/huVL5
As to B7, the EC50 in assay [1] turned out to be 2.21 nM.

B8: huB-E29-17 (antibody, human IgG1, kappa, V domains shown)
VH: B1 VH with S49A, S63T
VL: B1 VL
notes: Humanized B-E29 variant; human IgG1 (G1m3) / kappa (Km3), produced in CHO cells; also called huVH15/huVL1
Take B8: the EC50 in assay [1] worked out at 2.61 nM.

B9: huB-E29-16 (antibody, human IgG1, kappa, V domains shown)
VH: B1 VH with S49A, D62E
VL: B1 VL
notes: Humanized B-E29 variant; human IgG1 (G1m3) / kappa (Km3), produced in CHO cells; also called huVH14/huVL1
For the molecule B9, the EC50 in assay [1] was 2.01 nM.

B10: huB-E29-9 (antibody, human IgG1, kappa, V domains shown)
VH: B1 VH with S49A, S63T, M102A
VL: B1 VL
notes: Humanized B-E29 variant; human IgG1 (G1m3) / kappa (Km3), produced in CHO cells; also called huVH7/huVL1
As for B10, the EC50 in assay [1] was 1.99 nM.

B11: huB-E29-14 (antibody, human IgG1, kappa, V domains shown)
VH: B1 VH with S49A, M109F
VL: B1 VL
notes: Humanized B-E29 variant; human IgG1 (G1m3) / kappa (Km3), produced in CHO cells; also called huVH12/huVL1
In the case of B11, the half-maximal effective concentration (EC50) in assay [1] turned out to be 0.813 nM; in assay [5], 0.347 nM.

B12: huB-E29-8 (antibody, human IgG1, kappa, V domains shown)
VH: B1 VH with S49A, S63T, M102I
VL: B1 VL
notes: Humanized B-E29 variant; human IgG1 (G1m3) / kappa (Km3), produced in CHO cells; also called huVH6/huVL1
For the molecule B12, in assay [1], the EC50 was determined as 1.79 nM.

B13: huB-E29-15 (antibody, human IgG1, kappa, V domains shown)
VH: B1 VH with S49A, M109I
VL: B1 VL
notes: Humanized B-E29 variant; human IgG1 (G1m3) / kappa (Km3), produced in CHO cells; also called huVH13/huVL1
With B13, the EC50 in assay [1] is 2.53 nM.

B14: huB-E29-31 (antibody, human IgG1, kappa, V domains shown)
VH: B1 VH with S49A, M102F, W107Y
VL: B1 VL with Y41F, L51R, D96E
notes: Humanized B-E29 variant; human IgG1 (G1m3) / kappa (Km3), produced in CHO cells; also called huVH20/huVL6
For the molecule B14, in assay [1], the EC50 stood at 3.51 nM.

B15: huB-E29-30 (antibody, human IgG1, kappa, V domains shown)
VH: B1 VH with S49A, M102F, W107Y
VL: B1 VL
notes: Humanized B-E29 variant; human IgG1 (G1m3) / kappa (Km3), produced in CHO cells; also called huVH20/huVL1
In the case of B15, the EC50 in assay [1] was 5.87 nM.

B16: huB-E29-22 (antibody, human IgG1, kappa, V domains shown)
VH: B1 VH with R3Q, M5V, A6E, S49A, M102F, W107Y, M109F
VL: B1 VL with Y41F, L51R, D96E
notes: Humanized B-E29 variant; human IgG1 (G1m3) / kappa (Km3), produced in CHO cells; also called huVH16/huVL6
In the case of B16, the concentration for a half-maximal effect (EC50) in assay [1] was 3.87 nM.

B17: huB-E29-34 (antibody, human IgG1, kappa, V domains shown)
VH: B1 VH with S49A, D62E, M102F, W107Y
VL: B1 VL with Y41F, L51R, D96E
notes: Humanized B-E29 variant; human IgG1 (G1m3) / kappa (Km3), produced in CHO cells; also called huVH21/huVL6
Take B17: the EC50 in assay [1] was determined as 3.89 nM.

B18: huB-E29-5 (antibody, human IgG1, kappa, V domains shown)
VH: B1 VH with S49A
VL: B1 VL with L51R
notes: Humanized B-E29 variant; human IgG1 (G1m3) / kappa (Km3), produced in CHO cells; also called huVH1/huVL3
As to B18, the EC50 amounted to 1.47 nM in assay [1] and 0.453 nM in assay [5].

B19: huB-E29-13 (antibody, human IgG1, kappa, V domains shown)
VH: B1 VH with S49A, M109L
VL: B1 VL
notes: Humanized B-E29 variant; human IgG1 (G1m3) / kappa (Km3), produced in CHO cells; also called huVH11/huVL1
Regarding B19, the EC50 in assay [1] was determined as 3.17 nM.

B20: huB-E29-6 (antibody, human IgG1, kappa, V domains shown)
VH: B1 VH with S49A, M102L
VL: B1 VL
notes: Humanized B-E29 variant; human IgG1 (G1m3) / kappa (Km3), produced in CHO cells; also called huVH4/huVL1
Consider B20, for which the EC50 in assay [1] is 1.84 nM.
